Test results as given in article PMC12485133, “An active allosteric mechanism in ASAP1-mediated Arf1 GTP hydrolysis redefines PH domain function” (Nature Communications, 2025).
Values belong to the binder of their own block, whether it stands above or below them.

Columns and labels:
myrArf1 Glu54Ala [1] = biological target: T1, myrArf1 Glu54Ala (human, UniProt P84077 1-181, Glu54Ala, N-terminal myristoyl); test: cell-based or functional assay
myrArf1 Glu54Ala [2] = biological target: T1, myrArf1 Glu54Ala; test: not stated; binding of PH variants and Arf variants compared with wild type (Fig. SI8 and Table SI1); the method is not given; details: both partners purified
[3] = biological target: T2, MTSL-tagged myrArf1 K38C (Cys159 mutated to Ala), GTPγS, on nanodiscs (human, UniProt P84077 1-181, Cys159 mutated to Ala | K38C, N-terminal myristoyl; MTSL nitroxide spin label on Cys38 via a disulfide bond); test: intermolecular PRE NMR; 60 μM protiated MTSL-labelled myrArf1 variants on nanodiscs, 50 μM methyl-labelled ASAP1 PH, 25 °C; paramagnetic against ascorbate-reduced sample; details: both partners purified
T2 construct: human Arf1, Uniprot P84077, mono-cysteine variant; source: E. coli BL21 Star (DE3), co-expressed with yeast NMT, purified; spin-labelled on nanodiscs
T2 sequence (P84077 other isoform, or with tags, fused parts or gaps with the stated changes): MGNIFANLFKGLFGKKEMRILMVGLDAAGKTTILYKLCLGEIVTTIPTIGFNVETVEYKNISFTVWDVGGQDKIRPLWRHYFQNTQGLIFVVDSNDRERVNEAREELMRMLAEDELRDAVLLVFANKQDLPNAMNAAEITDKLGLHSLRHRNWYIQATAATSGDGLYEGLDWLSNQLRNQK

[4] = biological target: T3, MTSL-tagged myrArf1 with Lys73 replaced by Cys (Cys159 mutated to Ala), GTPγS, on nanodiscs (human, UniProt P84077 1-181, Cys159 mutated to Ala | Lys73 replaced with Cys, N-terminal myristoyl; MTSL nitroxide spin label on Cys73 via a disulfide bond); test: as above; details: both partners purified
T3 construct: human Arf1, Uniprot P84077, mono-cysteine variant; also called spin-labeled myrArf1 variant (Lys73 to Cys); source: E. coli BL21 Star (DE3), co-expressed with yeast NMT, purified; spin-labelled on nanodiscs
T3 sequence (P84077 other isoform, or with tags, fused parts or gaps with the stated changes): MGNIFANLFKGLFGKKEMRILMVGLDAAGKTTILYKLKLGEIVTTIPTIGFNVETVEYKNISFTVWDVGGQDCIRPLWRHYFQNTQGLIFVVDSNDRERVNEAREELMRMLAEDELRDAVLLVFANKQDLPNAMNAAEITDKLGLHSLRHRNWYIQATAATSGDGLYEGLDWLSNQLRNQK

[5] = biological target: T4, ASAP1 ZA domain (Arf GAP domain and ankyrin repeats), residues 447-724 of ASAP1 (UniProt Q9QWY8 447-724); test: intermolecular PRE NMR; Cys159-MTSL myrArf1 (non-hydrolysable GTP analog), alone or in complex with wt PH, on nanodiscs; 100 μM Arf or Arf:PH and 100 μM isotopically labeled ZA; details: both partners purified
T4 construct: Mouse is stated only for the PH domain constructs; the same residue numbers are used; Isotopically labelled in the PRE experiment; also called ^ΔPHZA; isolated ZA domain
T4 sequence (looked up): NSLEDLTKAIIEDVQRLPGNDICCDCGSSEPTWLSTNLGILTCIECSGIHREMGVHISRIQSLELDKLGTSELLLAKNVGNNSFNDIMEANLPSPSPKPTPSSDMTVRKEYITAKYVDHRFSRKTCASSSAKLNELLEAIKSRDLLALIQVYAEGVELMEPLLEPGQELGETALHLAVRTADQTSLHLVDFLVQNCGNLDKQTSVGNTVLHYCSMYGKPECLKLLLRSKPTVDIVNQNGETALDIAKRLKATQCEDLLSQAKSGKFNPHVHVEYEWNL

[6] = biological target: T5, N-myristoylated human Arf1 bound to GTPγS, anchored on nanodiscs (myrArf1·GTPγS) (human, UniProt P84077 1-181, N-terminal myristoyl); test: cell-based or functional assay
T5 sequence (P84077 whole entry): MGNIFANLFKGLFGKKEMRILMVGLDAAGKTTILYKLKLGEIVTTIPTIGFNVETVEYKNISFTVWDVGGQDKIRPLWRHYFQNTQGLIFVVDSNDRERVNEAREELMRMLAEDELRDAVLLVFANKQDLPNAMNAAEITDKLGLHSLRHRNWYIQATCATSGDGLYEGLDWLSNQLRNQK

[7] = biological target: T5, N-myristoylated human Arf1 bound to …; test: not stated; binding of PH variants and Arf variants compared with wild type (Fig. SI8 and Table SI1); the method is not given; details: both partners purified

T1 sequence (P84077 whole entry E54A): as the sequence (P84077 whole entry) above, with E54A counted along it

fold decrease in GAP activity on Arf1 Glu54Ala compared with wild type (C50 of PZA, Fig. 7C) (myrArf1 Glu54Ala [1]): 70 fold
fold reduction of binding against wild type (myrArf1 Glu54Ala [2]): 2 fold
binding result [3]: binds
binding result [4]: binds
B1: wild-type ASAP1 PH domain, [325-451]ASAP1 (domain or fragment, mouse, UniProt Q9QWY8 325-451, looked up)
chain: GGYSMHQLQGNKEYGSEKKGFLLKKSDGIRKVWQRRKCAVKNGILTISHATSNRQPAKLNLLTCQVKPNAEDKKSFDLISHNRTYHFQAEDEQDYIAWISVLTNSKEEALTMAFRGEQSTGENSLED
notes: mouse ASAP1, PH domain with its N-terminal extension, residues 325-451; also called wt PH

Kd [5]: 100 to 1000 µM
B2: Cys159-MTSL tagged myrArf1 bound to a non-hydrolysable GTP analog, on nanodiscs (natural protein)
chain: not shown
modifications: N-terminal myristoyl; MTSL nitroxide spin label on Cys159
notes: human Arf1, Uniprot P84077, native Cys159 spin-labelled; source: E. coli BL21 Star (DE3), co-expressed with yeast NMT, purified; spin-labelled on nanodiscs

fold decrease in GAP activity compared with PH [6]: 100 fold
fold weaker binding than wt PH [7]: 2 fold
B3: ΔN14 ASAP1 PH domain, [339-451]ASAP1 (domain or fragment, mouse, UniProt Q9QWY8 339-451, looked up)
chain: GSEKKGFLLKKSDGIRKVWQRRKCAVKNGILTISHATSNRQPAKLNLLTCQVKPNAEDKKSFDLISHNRTYHFQAEDEQDYIAWISVLTNSKEEALTMAFRGEQSTGENSLED
notes: mouse ASAP1, PH domain with shortened N-terminal extension, residues 339-451; tied by counting 14 residues from 325; also called ^ΔN14PH; source: E. coli BL21 Star (DE3) or BL21 (DE3), purified (HiTrap SP, SEC)
